Source: paper PMC12111007, “Potential of Hyperthermophilic L-Asparaginase from Thermococcus sibiricus to Mitigate Dietary Acrylamide Assessed Using a Simplified Food System” (Foods, 2025)

Substrate: NC(=O)C[C@H](N)C(=O)O
Test: direct Nesslerization (ammonia release)
Assay type: biochemical, Thermococcus sibiricus
Conditions: 90 °C, substrate not named beside the constant, taken as L-asparagine, pH not stated for the kinetics

B1: TsAI (hyperthermophilic L-asparaginase from Thermococcus sibiricus) (Thermococcus sibiricus MM 739) (protein)
chain: MKKLLIIGTGGTIASAKTEQGYKSVLKIDEILKLAKIKLENGYKIDSTNIMNIDSTLIHPEDWEIIAKEVFKALDDYDGIIITHGTDTLAYTASMLSFMIKNPNKPIVLTGSMLPITENGSDAPRNIRTAIKFAMEDVAGVFVAFMDKIMLGCRTSKVRTLGLNAFMSINYPDVAYVKGEKILYNIPKEKFQPNGSPELDTKYEPRVVVLRVTPGLGGEIIDAVLDAGYKGIVLEGYGAGGLPYRKSNLLSKIKEITPKIPVIMTTQALYDGVDMRKYEVGRKALETGIIPAKDMTKEATITKLMWALGHTKDVEKIREIMHTNYVNEIKS
Km: 3.8 mM
